Data reported in publication PMC10497415, “Lis1 relieves cytoplasmic dynein-1 autoinhibition by acting as a molecular wedge” (Nature Structural & Molecular Biology, 2023).

Biological target: the molecule itself
Experiment: cryo-EM structure; 150 nM biotinylated dynein^E2488Q, 650 nM Lis1, 1.2 mM ATP, 1.2 mM Na3VO4, on streptavidin affinity grids; 4.1 Å map (C2), 3.6 Å after symmetry expansion

B1: S. cerevisiae Lis1 (Pac1) (natural protein)
chain: MTNWQQQLPLTDTQKNELDKSVLRYLNWNYKQTVRHEHAQDYESVRHAIVTLSGFLLQESVDRQEFISNNDTSNESMVDIDELLLPKKWNSIVRLQKKIIELEQNTETLVSQIKDLNTQVSELAQFKPTTSNGTSAHNVLKWIPRNLPSCLINVESSVTSVKLHPNLPIVFVATDHGKLYAFDLFNYTIPLASLQSHTKAITSMDVLFTNYTNSSKKNYLVIVTASKDLQIHVFKWVSEECKFQQIRSLLGHEHIVSAVKIWQKNNDVHIASCSRDQTVKIWDFHNGWSLKTFQPHSQWVRSIDVLGDYIISGSHDTTLRLTHWPSGNGLSVGTGHEFPIEKVKFIHFIEDSPEIRFRTPSTDRYKNWGMQYCVSASRDRTIKIWEIPLPTLMAHRAPIPNPTDSNFRCVLTLKGHLSWVRDISIRGQYLFSCADDKSVRCWDLNTGQCLHVWEKLHTGFVNCLDLDVDFDSNVTPRQMMVTGGLDCKSNVFMR
notes: Lis1 (Pac1), S. cerevisiae; a dimer; only the β-propellers are spoken of in the structure; also called yeast Lis1; source: S. cerevisiae, purified (Ni-NTA, IgG Sepharose, TEV cleavage)
- binding result: binds
